Laboratory results from article PMC3999984.

Columns and labels:
[1] = molecular target: pT18c-Zip (leucine zipper fragment encoded by control plasmid pUT18C-zip); test: two-hybrid; bacterial adenylate cyclase two-hybrid (BACTH) in cya- E. coli BTH101; bait RbaW, preys in pKNT25 or pKT25; β-galactosidase activity (units mg^-1 dry weight) of 3 replicate co-transformants
[2] = molecular target: pT18c-RbaW (RbaW in BACTH vector pUT18c) (Rhodobacter capsulatus); test: as above

β-galactosidase activity [1] [units mg^-1] | β-galactosidase activity [2] [units mg^-1] | Substance
7340 |  | KT-Zip (leucine zipper fragment encoded by control plasmid pKT25-zip) (domain or fragment)
 | 1440 | pKNT25-RbaV (RbaV in BACTH vector pKNT25) (natural protein)
